The values below come from FireProtDB (doi:10.1021/bi0512400).

B1: Alpha-lactalbumin, P00712 (parent)
chain: MMSFVSLLLVGILFHATQAEQLTKCEVFQKLKDLKDYGGVSLPEWVCTAFHTSGYDTQAIVQNNDSTEYGLFQINNKIWCKDDQNPHSRNICNISCDKFLDDDLTDDIVCAKKILDKVGINYWLAHKALCSEKLDQWLCEKL

Where “and” joins values, the source holds several entries; their conditions need not be identical. Equal entries are not always repeated.

The variants in the data set derive from B1. As to conditions: Capra hircus, pH 7.5, 25 °C, GdnHCl, CD, Tris 20 mM, Ca2+ 10 mM, structure 1HFY, whole UniProt chain shown.

Turning to W123F, the “ddG of mutation (higher = less stable)” value amounted to 2.27 kcal/mol, the denaturant m value came out at 2.8 kcal/mol/M and the unfolding free energy is 7.97 kcal/mol.

As for W137F, the “ddG of mutation (higher = less stable)” value was -0.16 kcal/mol, the denaturant m value was found to be 3.06 kcal/mol/M and the unfolding free energy came to 10.4 kcal/mol.

Regarding W45F, the “ddG of mutation (higher = less stable)” value amounted to 2.4 kcal/mol, the denaturant m value came out at 2.81 kcal/mol/M and the unfolding free energy is 7.84 kcal/mol. Also, for the setting “transition: 3”, the denaturant m value is 1.65 kcal/mol/M and 1.16 kcal/mol/M; the unfolding free energy is 4.18 kcal/mol and 3.66 kcal/mol.

Consider W79F, for which the “ddG of mutation (higher = less stable)” value worked out at 1.27 kcal/mol, the denaturant m value is 2.65 kcal/mol/M and the unfolding free energy amounted to 8.97 kcal/mol. For the setting “transition: 3”, the denaturant m value was 1.51 kcal/mol/M and 1.14 kcal/mol/M; the unfolding free energy was 4.98 kcal/mol and 3.99 kcal/mol.
